Experiment: soluble on expression in E. coli; label from the status in PepcDB or PDB records

| Sequence | soluble on expression in E. coli |
| --- | --- |
| MSFSQAVSGLNAAATNLDVIGNNIANSATYGFKSGTASFADMFAGSKVGLGVKVAGITQDFTDGTTTNTGRGLDVAISQNGFFRLVDSNGSVFYSRNGQFKLDENRNLVNMQGMQLTGYPATGTPPTIQQGANPAPITIPNTLMAAKSTTTASMQINLNSTDPVPSKTPFSVSDADSYNKKGTVTVYDSQGNAHDMNVYFVKTKDNEWAVYTHDSSDPAATAPTTASTTLKFNENGILESGGTVNITTGTINGATAATFSLSFLNSMQQNTGANNIVATNQNGYKPGDLVSYQINNDGTVVGNYSNEQEQVLGQIVLANFANNEGLASQGDNVWAATQASGVALLGTAGSGNFGKLTNGALEASNVDLSKELVNMIVAQRNYQSNAQTIKTQDQILNTLVNLR | not soluble |
| MDTPNKDDSIIRFSVSLQQNLLDELDNRIIKNGYSSRSELVRDMIREKLVEDNWAEDNPNDESKIAVLVVIYDGGQRELNQRMIDIQHASGTHVLCTTHIHMDEHNCLETIILQGNSFEIQRLQLEIGGLRGVKFAKLTKASSFEYNE | soluble |
| MKFRSTALVKGFRQSAPYVNAHRDKTVVIMLGGEAIADPNFANIVNDIALLNSLGLRIVIVYGTRPQMRSLLKQTEHHAPFHKGIRITDEQTLELVKQIAGQLQLDITARLSMSLNNTPMAGAQINVISGNFVIAQPLGVDDGIDYCHSGRVRRIDTQGINRMLDQQSIVLLGPVASSVTGECFNLLSEDVATQLAIRLNADKLIGFCSEQGVLNEKGQILAELFPSEAEEILQRLEKELTPENGKLTGTMRFLKGAISACKAGVPRSHLISYKEDGALIQELFSFDGIGTQVVMASSEQVRDAEIDDIGGILDLIRPLEEEGILVRRSREQLEQEIAQFTIIEKDGLVIACAALYPFPEEGMAEMGCVAVHPDYRDGDRGVTLLNRLRSKAKQFKLSQLFVLTTRSLHWFREQGFIEVDVSHLPIKKQKLYNFQRKSKILVLKGL | not soluble |
| MSLAQTNPNSKGDQQKMINIAHRGASGHAPENTMAAFQKGFDMKVDYIEFDVHMTKDGELVLMHDLTVDRTTNGHGYVSDLTLDEIKQFDAGSWFHEDFVGEKVPTFEETLDVFRGKVGLLIELKSPERYPGMEEKVAEALKERKMDRSSNHKVIIQSFNHESMKKSKELLPHIPHGVLAGPSWANVTDEQLEEFSTYADYFNPNMTIVTPELVSRIHAVGMKIFPYTSRTQEQANRLFELKVDGIITDFPEHVYFHPVKNQEGHHHHHH | not soluble |
| MIKIAITKGRIQKQVTKLLENADYDVEPILNLGRELQIKTKDDLQIIFGKPNDVITFLEHGIVDIGFVGKDTLDENDFDDYYELLYLKIGQCIFALASYPDFSNKNFQRHKRIASKYPRVTKKYFAQKQEDIEIIKLEGSVELGPVVGLADAIVDIVETGNTLSANGLEVIEKISDISTRMIVNKSSFKFKKDKIIEMVERLEDAQTN | soluble |
| DPAGLLDLRQGMFAQLVAQNVLLIDGPLSWYSDPGLAGVSLTGGLSYKEDTKELVVAKAGVYYVFFQMELRRVVAGEGSGSVSLALHLMPLRSAAGAAALALTVDLPPASSEARNSAFGFQGRLLHLSAGQRLGVHLHTEARARHAWQLTQGATVLGLFRVTPEIPA | soluble |
| MSDVKSVIESGRAVLGIEFGSTRIKAVLIGEDHAPIATGAHDWENMLVDGIWTYSLDMIWEGISDCYSKMAQDAKEKYGVTIKKLAAIGISGMMHGYLPFDEEDNLLVPFRTWRNTITGEAAAELTEVLGFNIPQRWSIAHLYQAILNKEEHVSKISYFTTLAGYIHWQLTGEKVMGVGEASGMFPIDSKTRDYDAAMLDKFAALDKVKEYPWDIRDILPKVLTAGEKAGTLTEEGAKRLDVSGNLESGILLAPPEGDAGTGMVATNSVAVRTGNVSAGTSVFAMVVLEKALKAVHEELDMVTTPSGDAVAMVHCNNCTSDLNAWVGLFKEFSELFGMDIDMNDIYGKLYNNALTADKDCGGLVAFNLFSGEPVIGLNEGRPMFARKPDARMNLANFMRTHLYASLATLKIGCDILFKEEKVKVDTLYGHGGLFKTKGVGQSILAAAMDAPVAVMETAGEGGPWGMAVLAAYMVNKADGEPLEKYLSDRVFNGEKGIVMQPDPDDVKGFDEYINTYKAAIEAERAMVKALPLLEHHHHHH | soluble |
| MGSDKIHHHHHHMAVWNANEMPERDRFPYWREVLCEAYIALNPILEGEQRFKGEVKANLLDCINVTTISSSRQKIHRRRLDISRMPHEVYFLNLQVKGQCRMMQGSREALLEPGDFSLVDSTEPYLNDYCSDDWTQYSFRIPRAMLKPLLKQADKQTAIRFTSAHPIASVAIDYLKSVAQNAEHIGTASTPIANHIVDLVAMAAGVSTTEEDRARGTLRSQLSRSVIQFIGAHAADPTLTPAKAAQHFKISVRYVHRLLEESGETFSRLLLKRRLERCADDLRAEAAISISEIAFRWGFNDLSHFSKTFRHHFGVAPRDYRGQ | not soluble |
| MASNEVLVLRGTLEGHNGWVTSLATSAGQPNLLLSASRDKTLISWKLTGDDQKFGVPVRSFKGHSHIVQDCTLTADGAYALSASWDKTLRLWDVATGETYQRFVGHKSDVMSVDIDKKASMIISGSRDKTIKVWTIKGQCLATLLGHNDWVSQVRVVPNEKADDDSVTIISAGNDKMVKAWNLNQFQIEADFIGHNSNINTLTASPDGTLIASAGKDGEIMLWNLAAKKAMYTLSAQDEVFSLAFSPNRYWLAAATATGIKVFSLDPQYLVDDLRPEFAGYSKAAEPHAVSLAWSADGQTLFAGYTDNVIRVWQVMTAN | soluble |
| MPQFSNRRRVPHSAQQMFDLVADVERYPQFVPLCKALKIRERIQQPDGNEVVIADMTVSFKLVQETFTSRVTLDRANLKILVEYLKGPFSNLENRWTFAAKTERACEVGFFIAYEFKSRMLATLMGAMFDTAFHRFAEAFETRADQIYGTGPKLSRALEHHHHHH | not soluble |
| MANSSVELRVSEAYPRDVGRKIVRIDRQTAARLGVEVGDFVKVSKGDRSVVAVVWPLRPDDEGRGIIRMDGYLRAALGVTVGDTVTVEKAEKVEPASKVVLAPTEPIRFGRDFVEYVKEFLLRKPISRGETIIVPVLEGLPLVVVSTQPAHFVYVTEATEVEIREKPVREEIERLRGVPKVTWEDIGDLEEAKERIREIVELPMKHPEIFKHLGIEPPKGILLYGPPGTGKTLLAKALANEIGAYFISINGPEIMSKYYGESEQRLREIFKEAEENAPSIIFIDEIDAIAPKREEVTGEVEKRVVAQLLTLMDGLKERGRVIVIGATNRPDAIDPALRRPGRFDREIEIRPPDKRARAEILKVHTRNMPLAEDVDLDKLAEMTHGYTGADLAALAKEAAMAALRRFIREGKINFEAKEIPATVLKELKVTMKDFMEAMKMIRPTLIREIYVEVPEVRWSDIGGLEEAKQALREAVEWPLKHPEIFEKMGIRPPRGVLLFGPPGTGKTLLAKAVATESGANFIAVRGPEILSKWVGESERAIRKIFERARQAAPAVVFFDEIDAIAPARGARFDTSGVTDRIVNQMLAEMDGIQPLSNVVVIGATNRPDILDPALLRPGRFDRLIYVPPPDKEARKEIFKIHTKKVPLGEDVDLEKLAEMTEGYTGADIEAVVREAVMAKLREKLEVGKVEMRHFLEALKKVPPSLTKEDILRYERLAKELKKLTLG | soluble |
| IHHLPPVKAPLQTKKKIMKHCFLCGKKTGLATSFECRCGNNFCASHRYAEAHGCNYDYKSAGRRYLEEANPV | soluble |
| MSLIGVIGVKRNVDIAIREKLALYPKKHKKYVGELLNSFKEVVILNTCNRTEIYFNCTEEISEDEIFDKIFNVFNWNDDLKKYMFLSKEKRAVTHLMEVICGFHSRILGEDQILGQIKGAYKTAISDNSISSELQKMFEIAIACGKKFKTECKMFEVPVSSVSISINSALLKGCRKFMVLGYGEIGKLAIKHLLSHKVECIYLIVRDKSKASDLEGEIVEVLDFNEKNQVINEIDCIVSCTAAPHTVVRNEDIKTEGETIHIYDLAVPRDVDKELSEKERVILKDIDEISKIDDKNKKIRKERMEEYKHIVEESIDEFLNWLKIREVSSKIRNIKIRENEICSERIKTFSNKGNGENAKLAERMIKSTADAYVNRAIELLKSEALKGSDSYCAEIIEKIFLTEGHHHHHH | soluble |
| MGHHHHHHSHMLNSTGELEFSNEEDPEIISQLTSLPLSGGKSSAGVPEKTGYPDSVYVMAANIFQGIRIEKSAQKVLIKYGNEPLRSLSESEDQSFQRLSYELAFSALKYQDILETILIDSCIFPSTTTPDHLSSLIIVMLYDFQDRKFQTRVLSDNEEPISEVQEVENLLNSFKIKLAAALARCRIKHDALSIYHILPETVRKQELRASTLPLYAWINTCKISPEEVYNNLKRRGYNKVKSVLHIDDKVFAVDQHCYDVLIFPSHLKNDLINIDLFKDYKLIFQVN | not soluble |
| MEGLLMYDVHSKHADDFISHEEILETLAYADENKTNEALIDSILEKARLRKGLSHREASVLLACPIEEKNQEIYRLAEQIKKDFYGNRIVMFAPLYLSNYCVNGCTYCPYHLKNKHIARKQLTQEEIRKEVIALQDMGHKRLALEAGEDPVRNTIDYYLESIKTIYSIKHKNGAIRRVNINIAATTVDNYRLLKEAGIGTYILFQETYHKESYLALHPTGPKHDYNYHTEAMDRAMEGGIDDVGIGVLFGLDKYRYEFAGLLMHAEHLEAAFGVGPHTISVPRLRHADDINADEFDNGIDDDTFAKIVACIRIAVPYTGMIISTRESQKCRERVLHLGVSQISGGSRTSVGGYCEPEPDDAKSEQFDVSDTRTLDEVVRWLMEMDYIPSFCTACYREGRTGDRFMSLCKSGQIQNCCHPNALMTLKEYLMDYASPETKAIGDRLIDKEVLNVPNEKARAVVLENLRLIEQNNRRDFRF | not soluble |
| MGSDKIHHHHHHMSIICLALAGCAVEKTEVRTPTFDEQLRPAPPSYANGSIWQASTTGLAVDHKARSRGDIITVLIVEQASASKEATTDTERKAEVSASVPYLMGLEKSSTLFSKLTNANPNNLLGASTNSKYEGSGATTRKENLLATMTAKITDVLPNGNFLIEGRRNVKVNNEDQILVLQGTIRPRDVSPDNTISSTMIADARISYTGNGVISDRQRPGWLMNILDYIWPF | not soluble |
| MRLEVLCEDRLGLTRELLDILASKSIDLRGIEIDISGIIYLNCPDIDFDTFSELMAEIRRIPGVKDVRKIQFMPMERHNTELLSLVDNLPDPVFAIDLKGAVDMANMSALSLLGLHKQEVIGTQIGALLPSVRFSRWSEGVNARTRENLVIDGLDYILELMPVYIRDEAQNSTLASTLMTIRTSQHGTQIE | not soluble |
| MATSSSAFDDELPMEEGMPELLDDEDVPSTLPSLLEQNLDTAPKGDEFKLVKRKRKSGNAIDVVMEDVSQVDEDATADTADDSTGPKSSKRTKGVKGESRVVPVPKHRYTPLKDNWVNIFTPIVKNLGLQVRFNLKKRQVEIRNPVDREDTTDLQKATDFVRAFILGFEVNDAIALIRLDHLFLETFEVADVKHSLKGDHVSRAIGRIAGKDGRTKLVIENTTKTRIVVANTKIHILGAYQNLKLARNAVCSLILGSNPSKVYGSLRNMASRGAERL | not soluble |
| MGSDKIHHHHHHMYKWHNVFQPIFQIDQNMNHKVDHYEMLLRDENDQFPNHDFFRIISTEEDNQKWIQIEEKSLKNLFSLHPNIHVNLNVEPIQFAYPSVWEFLRRIYDKYGQKVIIEITERQLQAGNIGNRQFDCAFQRINDIGFKIALDDVDSGSNSFSFVNHHVNQISVIKLSLLIFDNVSSGTTISFIDSWAAFAKEKHLDLVIEAVRSKEIAKRFAGNKHIFQQGYYWEKALKLEDIY | not soluble |
| MVQEANVRDKMRGTGVSVTRSGDNIILNMPNNVTFDSSSATLKPAGANTLTGVAMVLKEYPKTAVNVIGYTDSTGGHDLNMRLSQQRADSVASALITQGVDASRIRTQGLGPANPIASNSTAEGKAQNRRVEITLSPLLEHHHHHH | not soluble |
| MANVNTFSIVKNVKLDLGIEDDNQDQLLEMLLNRITDHFKANYGVLEIDNAFSFVLEDCLIARFNRRGSERAKTEEVEGHKTTYYDHLNEFEPYDAMIMAKLNLIKDKSRKGGLYFL | not soluble |
